Assay: label from the status in PepcDB records
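Further: failed if final PepcDB status was selected cloned or expressed and not failed if soluble or beyond.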

Sequence	protein production
MCRKRYKKQNLGVSKNMLEGHENKVSGVYEKNRSAGYEKEILKPKNVWEEFFADKRSGGHRSSAEEFLAMEAKEKLFHLDGGKILLDFGCGAGELLVYYAQEYEKTIGVDFSPSMLEEASKRIRERNCKNTTLILADDKIVWDKLDSSFDRITAAGVFQYLTYQKIDDFIFNASKHLNEGGKIVLFDMLDPRLYPLWKMGLFSQDKSCRKILSKAVCGVKNSISASLKRRPRDILGYSHYPNKIKKIANKNGFEMICVQSMYYEYKYHAIIFRS	failed
MCSIGVTALCSPAKFHHRREQSLIFTPTHLRNPNGFQFRWRKSRPFAPRLAQPDNFAPPLPLIRSSTSLLSSKDFVQMLARKAAILLVGSFVFLGFCSSKPALALPTATVVSQAELEDEKMFEKLLENEPENMEAMKAVVYKKMRRGKNEDAVKYVEKLMKLEPHEVEWKLLEALCYETMGELSKAKRLYKDILKEQPLLIRALHGLAMVMHKTHDTSVFDMLIEAMEVARQGNRVTEERNIQVLIGQMHIVEGQFEEGLKIFQQMVNDNPRDFRPYLCQGIVYSLMDKKEEAAQQFEIYWSLVPGEFPQKGFLDDVALAAQAKSRERLQNTFKAKFTQGR	failed
MCTKNETKPLPSFIEERLNFHIQDLIKSNENQKHLVLGKRPSENAVVMQSNDYLSLSHNELIQKAHRDAISERDDNVVMSAIFLQDDQSKPAFEHQLATFVGMESCLLSQSGWAANIGLLQTICAPNLPVYIDFFAHMSLWEGARTAGAQIHPFMHNNMNHLRKQIQRHGAGIIVVDSVYSTIGTIAPLRAIYEMAKEFDCGLVVDESHSLGTHGPEGSGLLQKLGLTQMVDFVTVSLAKTFAYRAGAILGPNKLAQSLPFVAYPAIFSSTVLPQEVVRLEKTLEVIKAADDKRECLFKRAKELAIGLKRIGFNIRSESQIIALECGSERNTERVRDFLEERDVFGAVFCRPATGRNKNIIRFSVNADMTAQQVDHVLSACQEAFDHPDLEFV	not failed
MCTPAADTRRGSPALASTARRGLLPARRNGPSARRGEALRSSTGRFVCWCRRRTASVDPSGFMPASFSIAGRLVDLHARAIRPATVHVQDGVIARIEPAETVPERHLLPGFIDAHVHVESAMLPPSEFARAAVRHGTVGTVSDPHEIANVLGVEGVEYMIADGRPVPFHFAFGAPSCVPATPFETSGAELGPDAVSALLDRDDVPYLSEMMDYPGAIDGAPNVLAKIRAAQVRDKPVDGHAPGLRGDDVAQYAAAGIETDHECVSIEEAREKLEAGMKIAIREGSAAKNFDELIPLMDEAPDRLMFCSDDRHPDALAEGHIDTLVRRALNRGYDRFDVLRAACVHPVEHYGLDVGLLREGDPADFIVVDDLDALNVQETYVEGALVAEEGETHIEHVASDVVNRFDAEPVAPADFRVPAGGDRLRVITAVDNQLGTGEEVVTTPTDDGYAVADPDRDVLKLAVVNRYTEESTPAVAFVRGFGLDGGALASSVAHDSHNVVAVGARDDALARAVNAVVRAEGGISAAAEGTQVLPLPIAGLMSDEPYDVVARRYTRLTDYVRAELGSAMDAPFMTLSFLSLLVIPQLKLSDRGLFDGAAFEFVDRFVD	failed
MCYASMEMSAPIRFGTEGFRGVIAREFTFATLHRLAEAYGRHLLERGGGLVVVGHDTRFLADAFARALSGHLAGMGLKVVLLKGPVPTPLLSFAVRHLKAAGGAMLTASHNPPQYLGVKFKDATGGPIAQEEAKAIEALVPEEARALEGAYETLDLREAYFEALKAHLDLKALSGFSGVLYHDSMGGAGAGFLKGFLRHVGLEIPVRPIREEPHPLFHGVNPEPIPKNLGVTLAVLGPETPPSFAVATDGDADRVGVVLPGGVFFNPHQVLTTLALYRFRKGHRGRAVKNFAVTWLLDRLGERLGFGVTTTPVGFKWIKEEFLKGDCFIGGEESGGVGYPEHLPERDGILTSLLLLESVAATGKDLAEQFKEVEALTGLTHAYDRLDLPLKAPLDLTPFREPRPLAGLTPKGVDTLDGVKWLYEEAWVLFRASGTEPVVRIYVEAQSPELVRALLEEARKLVEG	not failed
MDAAHRHGVPVLGNIFLPPVAYGGQLQWTRDLVQKDATGHYPLAAQLVAVADAYGFDGWFVNAETSGGNTALATDMRGFLQELKALGTAKGQRVTWYDSMTATGSVSWQGALNSQNQAFFQAADSMFVDFRWSKSTLASSGTLAGQLGRSRYELWAGVDVESNGTSTSVNWDAIVPSASAHVVSLGFYRPEWTRNHLPANRTPGDFHAADDLFWTGASLDPAKPNTTASWRAPALRVADRSTVDSLPFATVFNTGHGLKWYEGGEVTSDTAWNHLGLQDRLPSRRWIVRTSGARPSVTFDFADAWRGGSSVLVAGTLGAPATLDLYETRLPVGSSETVVELTHRTDAGSAQIELAVATAEPSAPGQAPSYTYFPVSSGDGWGTSTVRLTGLSGTVRTLAVRLTGSGSPVRWRLGALAVKNAPAEPAAPTGLRVTDADGGSLRFSWQPAAGEVRHYELHRVLADGTRRFLGGTCQCAYYVAGLAAEQGESAARFELRAVGELYTESTATTTTHPW	failed
MDAKEVSAHWESNAETWTMLSRAGHDRYRDTLNTPAFLAMLPPVAGLKGLDLGCGEGTNTRTVARLGASMTGLDIAPTFLRHARDAERRDPLGIDYVLGDGLTLPFADRSFDFVTAFMSMMDMVDQAAVLREVARVLKPGGFLQFSILHPCFVPPTRRNIRDAEGAPVAVEVADYFDESDGRVERWLFSSISAEQQAALTPFAVPRFHRTLSTWVAMIVGARLSIEAFGEPRASEEVAAAEPIVADTRVAPIFLHVLAKRPTTP	failed
MDAMKYHDLRDFLTLLEQQGELKRITLPVDPHLEITEIADRTLRAGGPALLFENPKGYAMPVLCNLFGTPKRVAMGMGQDDVSALREVGKLLAFLKEPEPPKGFRDLFDKLPQFKQVLNMPTKRLRGAPCQQKIASGDDVDLTRLPVMTCWPDDAAPLITWGLTVTRGPHKERQNLGIYRQQLIGKNKLIMRWLSHRGGALDFQEWLAARPGERFPVSVALGADPATILGAVTPVPDTLSEYAFAGLLRGTKTEVVKCLSNDLEVPASAEIILEGYIEPGEMAPEGPYGDHTGYYNEVDSFPVFTVTHITQREDAIYHSTYTGRPPDEPAVLGVALNEVFVPILQKQFPEIVDFYLPPEGCSYRLAVVTMKKQYAGHAKRVMMGVWSFLRQFMYTKFVIVCDDDVNARDWNDVIWAITTRMDPARDTVLVENTPIDYLDFASPVSGLGSKMGLDATNKWPGETQREWGRPIVKDPEVTARIDAIWDELAIFKLEHHHHHH	not failed
MDAPGPKPLRVARYWLYTGEHPARTTEVPVWNKLCLSVCCAILVLTASSCGADKSSDFLTEGRKLMDAGNAAGAVVLFRNALEKTPADYTLHLELGRAYIALGKLDLAEGELQKCLRQQPDDPPLNLALGELYVARNEPAKALPHLARYEQGAGETAVSRELAGLAHAQARSPEEARAALERSIALDAKRVTPRLALARLFLYRGDLKRAVATVDEALAVAPEDRLALTLRGDLLLRQGDAPGALVVFRKVASLAPGDDYARYMSGLLALQTGDEAGAAAVAASMNKDFKDNSLTLMLDGALAAQRKDYTLAASLFQRSVAMRPSLEGYYKLGMALYGKGDLETALSQFNRVLEATPEYDAARRMTVTILLAQRRVAEARQEAQKLVERNPSDAAAHFMLASAQMAAGDRAGAERSFEAGLALQPAHVPALLQLSRLKQADGRPDEALEDLKAAVVAAPDDLAVRNALFAYHLGRGDTGKGVQVVLEGLRGTPQDAILYTMLVPVYVNMGDEAKGLDAVAQAHRADPDFPDAYLAGLRLHAGAGRAEQALAESEAYLARKPDAPGFLLASGALLDLLGRTAEADARFDKALAANDPRVSFAVAERAVASGQDEKARRVLEEALRQHDQTTLRDALAIQLARMGKPDDALALYTAIETQRPREALLGRYRLLTHLDRHQEAADTARELGRRESASPLPVLLEAAAFERMGQRPQGVALLEAAHRKSGDPELLLAMGGMLERNGDEARAETCYRDALKARPDHVPTLLAYAGLDMRRKEYAKATALYEKAVSIAPDDVVALNNLAMAYLEKASRDATPQKALRLALQAYTRAPDNPAVLDTLGVCMMANGRADDAARAFGRAVVAVPGNPSLRYRHAEALFKAGRKDMAAEELRAALQTPDFPEAAKARDLLRKTGN	failed
MDATMHLFREKSSIGRLNLARVGLLDCIFGVRLNVEYKKTVEIFDCAGHNHRSGGIRNHRPTNSQGNSHKIKWKNLLLAPYTLVHVLVPPDLNKTCCDCGVYALKYIECHFMGLSLDMLDDVNIKDARLRIAVDLWKAAFDPVFIDRMTKYKPPKINSEIIDINLSVKLLKLNLIDNILEGPLSESITRSKTLLELDNMLEPNCI	failed
MDCRLKCTNQCTSLMMAFDKSHTIKGCSTEFSLSMTDTPILGTVKEPQRDYRTLDRQKLTPMFQHYTEVKEQYQGALLLYRVGDFFECFFQDAVIIARELELILTSKEGGKEIGRVAMTGVPHHALDRYARQLVEKGYAVAICDQVEDAAEAQAEKRMVERQVTKLLTPGTLTDDSMLPAKRNNFLAAIAMVEDKWGLAHADISTGEFFTCQSSNLDDLAVELLRLQPSEVLIPTSAPDIRNILRPGEPSEHIPKQLPTSFCYSLRSQAPFSLVEAKQRLLTTFRVKSLEGMGCEGLPLAIRAAGGLLEYIEDTQKAHVVPIQPLKTYGLTDFLVLDHQTRRNLEINQTVRDGSFHGSLLWALDRTSTTMGSRALRRWLLQPLLDLKGIQARQDTIQELYHHPALRQDLRQLLRQIYDLERLTGRIGANTASARDVYGLASSLVRLTDLAELAQEGHSPYLKALQTVPPELEELGKYVLAHIVENPPLHIREGNLIRSGVNPTLDEMRQSLEDDNQWLANLEVTEREKTGIANLKVGYNKAFGYYLSLPRSKSEQAPDNYIRKQTLVNEERYITPELKERETRILTAQADLNQLEYEIFTEVRATVAEKAQPIRDVAKAVAAIDVLAGLAEVAVYQGYCRPIMQMEPGLIDIEAGRHPVVEQSLGAGFFVANDTQLGHDHWHPDLVILTGPNASGKSCYLRQVGLIQLMAQTGSFIPAKTATLSICDRIFTRVGAVDDLATGQSTFMVEMNETANILNHATAKSLVLLDEIGRGTATFDGLAIAWSVAEYLAGEIQARTIFATHYHELNELASLLENVANFQVTVKELPEEIIFLHQVTPGGADKSYGIEAGRLAGLPSSVITRARQVMAQIEKHSKIAVGLRKGNRGKVMASQAAAEAAEDQAKQLDIFGF	failed
MDDGNENISMEVVEPEDAESDMSSDSGSDAEDDTAEPKAPKEVYLPGTKLADDEELVCDESAYVMLHQASTGAPCLSFDVIPDELGSGRQSFPMTAYIVAGTQASRAHVNNLIVMKMSNLHKTQDNDGDEDEELEDDQDDVTDREELKKPQMTCALVKHQGCVNRVRARRLGNSVYAASWSELGRVNIWDLTQPLQAVENAQLAKQYEQSEARPVFTFGGHQQEGFAIDWSPSADGVLATGDCRRDIHVWTPVEDGTWKVDQRPLAGHSQSVEDLQWSPNERSVLASCSVDKTIRIWDCRASPQKACMLTCEDAHQSDVNVISWNRNEPFIASGGDDGYLHIWDLRQFQSKKPIATFKHHTDHITTVEWSPAEATVLASGGDDDQIALWDLAVEKDIDQAVDPAQNEDVLNKLPPQLLFIHQGQKEIKELHWHPQLPGVLLSTAHSGFNIFRTISV	failed
MDDNTKELEQYWDEFSQEYEEIQNESLVDIGQQLKEFLLAEKLLPTSQFLDLAGGTGKYIPHFSNFTDSYHLVDLSAKMLEFAKNKSADSNKITFTHQEQNKFLKNTKENTYDFVFSAMNPALESKEALVELNRIANGNVGILRLIFDEDNLFSQVEQLYLPNQEQNKEAQMLLYKVWLEELGWEFKSKKFRFFLSEKVSSQFFSDYFSDELSNAELAALTQLFFSETEIREMERLVIFELLYWEKC	failed
MDEEIDTRKINNSFLRDHNYATEADIISTVEFNPTGELLATGDKGGRVVVFQREQESKNQPHRRGEYNVYSTLLKDWIMLIKTHRKNFRRKGKQLGFKCGSIY	failed
